Source: US20190040143A1

Target: human HER3 on human cancer cell lines (human) (UniProt P21860)
Test: cell-based or functional assay

maximal extent of pHER3 suppression, Kato III cells: 60% | potency in pHER3 ELISA, HCC827 cells, against 2C2 (fold less potent): 10
Substance: U1-59 anti-HER3 monoclonal antibody (International Patent Publication WO 2007077028)
